The results in this text go back to the supplement of paper PMC5998384.

The subject of data set [1] is HeLa Kyoto. Briefly: thermal stability score vs G1/S (z-score of summed log2 fold changes over temperatures); higher = more thermally stable than in G1/S.
Data set [2] has as its system HeLa Kyoto. Briefly: solubility in G1/S (NP-40 vs SDS abundance) (log2 ratio); higher = more soluble. Conditions: cell cycle stage: G1/S.
The test system of data set [3] is HeLa Kyoto. Briefly: melting temperature (median over replicates), in situ; higher = more thermally stable.
In data set [4] the test system is HeLa Kyoto. Briefly: solubility change mitosis vs G1/S (difference of NP-40 vs SDS log2 ratios) (log2 ratio difference); higher = more soluble in mitosis.
[5] abbreviates: cell cycle stage: early G1 (4.5 h after nocodazole release).
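Wherever melting temperature (median over replicates), in situ is given: HeLa Kyoto cells synchronized by double thymidine or nocodazole block, proteins quantified by TMT10plex mass spectrometry, three independent biological replicates.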
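Wherever solubility change mitosis vs G1/S (difference of NP-40 vs SDS log2 ratios) is given: synchronized HeLa Kyoto cells (double thymidine block for G1/S, nocodazole release for mitosis), protein amounts in NP-40 versus SDS lysates quantified by mass spectrometry, three biological replicates.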
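Wherever solubility in G1/S (NP-40 vs SDS abundance) is given: HeLa Kyoto cells arrested at G1/S by double thymidine block, proteins quantified by TMT10plex mass spectrometry in mild NP-40 versus SDS extracts, three biological replicates.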
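Wherever thermal stability score vs G1/S (z-score of summed log2 fold changes over temperatures) is given: synchronized HeLa Kyoto cells, proteins quantified by TMT10plex mass spectrometry, three biological replicates, mitosis taken 0.5 h after nocodazole release, G1/S directly after double thymidine block.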

As for “MSPEEWTYLVVLLISIPIGFLFKKAGPGLKRWGAAAVGLGLTLFTCGPHTLHSLVTILGTWALIQAQPCSCHALALAWTFSYLLFFRALSLLGLPTPTPFTNAVQLLLTLKLVSLASEVQDLHLAQRKEMASGFSKGPTLGLLPDVPSLMETLSYSYCYVGIMTGPFFRYRTYLDWLEQPFPGAVPSLRPLLRRAWPAPLFGLLFLLSSHLFPLEAVREDAFYARPLPARLFYMIPVFFAFRMRFYVAWIAAECGCIAAGFGAYPVAAKARAGGGPTLQCPPPSSPEKAASLEYDYETIRNIDCYSTDFCVRVRDGMRYWNMTVQWWLAQYIYKSAPARSYVLRSAWTMLLSAYWHGLHPGYYLSFLTIPLCLAAEGRLESALRGRLSPGGQKAWDWVHWFLKMRAYDYMCMGFVLLSLADTLRYWASIYFCIHFLALAALGLGLALGGGSPSRRKAASQPTSLAPEKLREE [MBOAT7]”, the thermal stability score in the data set with HeLa Kyoto [1] (setting [5]) is -1.37; with HeLa Kyoto [1] (cell cycle stage: mitosis), -1.09. Further, in the data set with HeLa Kyoto [2], the “solubility in G1/S (log2)” value was -0.091. Also, the melting temperature in the data set on HeLa Kyoto [3] (cell cycle stage: G1/S) amounted to 56.9 °C; in the data set with HeLa Kyoto [3] (cell cycle stage: mitosis), 57 °C. Besides, in the data set with HeLa Kyoto [4], the “solubility change mitosis (log2)” value is 0.0131.
With “MSPRRTLPRPLSLCLSLCLCLCLAAALGSAQSGSCRDKKNCKVVFSQQELRKRLTPLQYHVTQEKGTESAFEGEYTHHKDPGIYKCVVCGTPLFKSETKFDSGSGWPSFHDVINSEAITFTDDFSYGMHRVETSCSQCGAHLGHIFDDGPRPTGKRYCINSAALSFTPADSSGTAEGGSGVASPAQADKAEL [MSRB3]”, the thermal stability score in the data set with HeLa Kyoto [1] (setting [5]) was -0.168; in the data set with HeLa Kyoto [1] (cell cycle stage: mitosis) it was -0.886. In addition, the “solubility in G1/S (log2)” value in the data set with HeLa Kyoto [2] was 0.116. The melting temperature worked out at 55 °C with HeLa Kyoto [3] (cell cycle stage: G1/S) and 53.6 °C in the data set with HeLa Kyoto [3] (cell cycle stage: mitosis). In addition, in the data set with HeLa Kyoto [4], the “solubility change mitosis (log2)” value was determined as 0.0421.
For the sequence “MSQGDSNPAAIPHAAEDIQGDDRWMSQHNRFVLDCKDKEPDVLFVGDSMVQLMQQYEIWRELFSPLHALNFGIGGDTTRHVLWRLKNGELENIKPKVIVVWVGTNNHENTAEEVAGGIEAIVQLINTRQPQAKIIVLGLLPRGEKPNPLRQKNAKVNQLLKVSLPKLANVQLLDTDGGFVHSDGAISCHDMFDFLHLTGGGYAKICKPLHELIMQLLEETPEEKQTTIA [PAFAH1B2]”, the thermal stability score in the data set with HeLa Kyoto [1] (setting [5]) was -0.13; with HeLa Kyoto [1] (cell cycle stage: mitosis), -0.102. Further, the “solubility in G1/S (log2)” value with HeLa Kyoto [2] is 0.628. Moreover, the melting temperature in the data set on HeLa Kyoto [3] (cell cycle stage: G1/S) turned out to be 49.5 °C; with HeLa Kyoto [3] (cell cycle stage: mitosis) it was 51 °C. The “solubility change mitosis (log2)” value in the data set on HeLa Kyoto [4] was -0.079.
Consider “MSQQGYVATPPYSQPQPGIGLSPPHYGHYGDPSHTASPTGMMKPAGPLGATATRGMLPPGPPPPGPHQFGQNGAHATGHPPQRFPGPPPVNNVASSHAPYQPSAQSSYPGPISTSSVTQLGSQLSAMQINSYGSGMAPPSQGPPGPLSATSLQTPPRPPQPSILQPGSQVLPPPPTTLNGPGASPLPLPMYRPDGLSGPPPPNAQYQPPPLPGQTLGAGYPPQQANSGPQMAGAQLSYPGGFPGGPAQMAGPPQPQKKLDPDSIPSPIQVIENDRASRGGQVYATNTRGQIPPLVTTDCMIQDQGNASPRFIRCTTYCFPCTSDMAKQAQIPLAAVIKPFATIPSNESPLYLVNHGESGPVRCNRCKAYMCPFMQFIEGGRRYQCGFCNCVNDVPPFYFQHLDHIGRRLDHYEKPELSLGSYEYVATLDYCRKSKPPNPPAFIFMIDVSYSNIKNGLVKLICEELKTMLEKIPKEEQEETSAIRVGFITYNKVLHFFNVKSNLAQPQMMVVTDVGEVFVPLLDGFLVNYQESQSVIHNLLDQIPDMFADSNENETVFAPVIQAGMEALKAADCPGKLFIFHSSLPTAEAPGKLKNRDDKKLVNTDKEKILFQPQTNVYDSLAKDCVAHGCSVTLFLFPSQYVDVASLGLVPQLTGGTLYKYNNFQMHLDRQQFLNDLRNDIEKKIGFDAIMRVRTSTGFRATDFFGGILMNNTTDVEMAAIDCDKAVTVEFKHDDKLSEDSGALIQCAVLYTTISGQRRLRIHNLGLNCSSQLADLYKSCETDALINFFAKSAFKAVLHQPLKVIREILVNQTAHMLACYRKNCASPSAASQLILPDSMKVLPVYMNCLLKNCVLLSRPEISTDERAYQRQLVMTMGVADSQLFFYPQLLPIHTLDVKSTMLPAAVRCSESRLSEEGIFLLANGLHMFLWLGVSSPPELIQGIFNVPSFAHINTDMTLLPEVGNPYSQQLRMIMGIIQQKRPYSMKLTIVKQREQPEMVFRQFLVEDKGLYGGSSYVDFLCCVHKEICQLLN [SEC24D]”, for which the values for the thermal stability score in the data set with HeLa Kyoto [1] (setting [5]) and with HeLa Kyoto [1] (cell cycle stage: mitosis) were 0.419 and 0.688, respectively. Besides, the “solubility in G1/S (log2)” value with HeLa Kyoto [2] is 0.11. Also, the melting temperature in the data set on HeLa Kyoto [3] (cell cycle stage: G1/S) worked out at 50.8 °C; in the data set on HeLa Kyoto [3] (cell cycle stage: mitosis), 50.9 °C. Besides, the “solubility change mitosis (log2)” value in the data set on HeLa Kyoto [4] was -0.132.
